Consider one sequence from patent US5147794.

This series relates to KasI restriction endonuclease (recombinant, cell extract) (Kluyvera ascorbata). The series is described as follows: cleavage_in_vitro. Particulars: lambda DNA, 37 C, 1 h; nearly 10^6.

As to “GGCGCC (double strand) [KasI recognition site (lambda DNA)]”, the activity (units per gram of cells) worked out at 1e+06.
